Reference: the nanobody polyreactivity screen of Harvey et al. (2022)

Assay: yeast display, Sf9 membrane polyspecificity reagent, FACS + sequencing; frameworks hold sequencing errors
Procedure, shortened: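 A nanobody's polyreactivity label depends on the gate it was sorted from. Yeast display cells were stained with 10% biotinylated, detergent-solubilized Sf9 membrane reagent for 1 hour at 4 °C, enriched on streptavidin microbeads and sorted by FACS. The low and high (top ~1%) gates were set on anti-HA fluorescence for expression and streptavidin fluorescence for reagent binding.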

Sequence | polyreactivity (PSR sort gate)
QVQLVESGGGLVQAGGSLRLSCAASGRTFWIYGMGWYRQAPGKERELVAAITRSGGSTNYADSVKGRFTISRDNAKNTVYLQMKSLKPEDTAVYYCAADTWYPGYYAYDYWGQGTQVTVSS | high polyreactivity
QVQLVESGGGLVQAGGSLRLSCAASGRTFWNYAMGWYRQAPGKERELVAVIRFSDGSTYYSDSVKGRFTISRDKAKNTVYLQMNSLKPEDTAVYYCGAKGPRRWGSGFDYWGQGTQVNVSS | low polyreactivity
QVQLVESGGGLVQAGGSLRLSCAASGRTFWPNVMGWYRQAPGKERELVAAITWGDASTYYADSVKGRFTISRDNAKNTVYLQMNSLKPEDTAGYSCAASDYRSTYDYWGQGTQVTVSS | low polyreactivity
QVQLVESGGGLVQAGGSLRLSCAASGRTFWRYAMGWYRQAPGKERELVAAITSGGGSTYYADSVKGRFTISRDNAKNTVYLQMNSLKPEDTAVYYCNRAGRGRSFKGDYWGQGTQVTVSS | high polyreactivity
QVQLVESGGGLVQAGGSLRLSCAASGRTFWRYAMGWYRQAPGKERELVADISNSDTSTYYADSVKGRFTISRDNAKNSVYLQMKSLKPEDTAVYYCAARPFRFRLSDKYNYWGQGTQVTVSS | high polyreactivity
QVQLVESGGGLVQAGGSLRLSCAASGRTFWSNAMGWYRQAPGKERELVADITFSGGRTYYADSVKGRFTISRDNAKNTVYLQMNSLKPEDTAVYYCAASATPSGVGMDYWGQGTQVTVSS | low polyreactivity
QVQLVESGGGLVQAGGSLRLSCAASGRTFWSYAMGWYRPAPGKERELVAAINSSGDSTNYADSVKGRFTISRDNAKNTVYLQMNWLKPEDTAVYYCAADGGLLAGSDATVRMDYWGQGTQVTVSS | low polyreactivity
QVQLVESGGGLVQAGGSLRLSCAASGRTFWSYAMGWYRQAPGKERELVATINDSDGSTYADSVKGRFTISRDNAKNTVYLQMNSLKPEDTAVYYCNAQTRAGYYFGYGYWGQGTQVTVSS | low polyreactivity
QVQLVESGGGLVQAGGSLRLSCAASGRTFWTNAKGWYRQAPGKERDFFAAISWRGASTFYADSVKGRFTISRYNAKNTVYLQMNSLKPEDTAVYYCAAQSRTRSFYGKYDSWGQGTQVTVSS | low polyreactivity
QVQLVESGGGLVQAGGSLRLSCAASGRTFWTNAMGWYRQAPGKERELVAAISWTTGSTNYADSVKGRFTISRDNAKNTVYLQMNSLKPEDTAVYYWAADSQYGWPEYEYDYWGQGTQVTVSS | low polyreactivity
QVQLVESGGGLVQAGGSLRLSCAASGRTFWTYAMGWYRLAPGKERELVASISKSGGSTYADSVKGRFTITRDNAKNTVYLQMNSLKPEDTAVYYCATDLSYDVWFFGPDYDYWGQGTQVTVSS | low polyreactivity
QVQLVESGGGLVQAGGSLRLSCAASGRTFWVYAMGWYRQAPGKERELVAAISRSGVSTYYADSVKGRFTISRDNAKNTVYLQMNSLKPEDTAVYYCAAPLIYTPLKYHYWGQGTQVTVSS | low polyreactivity
QVQLVESGGGLVQAGGSLRLSCAASGRTFWWYAMGWYRQAPGKERALVAGISSGGSTYYADSVKGRCTISRDNAKKTVYLLMNSRKPEETAVYYCAKTYWYPWRASLWHEYDYWGQGTQVTVSS | low polyreactivity
QVQLVESGGGLVQAGGSLRLSCAASGRTFWYNAMGWYRQAPGKEREFVAAIRWTTGSTYYADSVKGRFTISRDNAKNTVYLQMNSLKPEDTAVYYCAASLYPVRRDYWGQGTQVTVSS | high polyreactivity
QVQLVESGGGLVQAGGSLRLSCAASGRTFWYNAMGWYRQAPGKERELVAVISSGAITYYADSVKGRFTISRDNAKNTVYLQMNSLKPEDTAVYYCAARSYLSLIDYWGQGTQVTVSS | high polyreactivity
QVQLVESGGGLVQAGGSLRLSCAASGRTFWYNAMGWYRQAPGKERELVAVISSGAITYYADSVKGRFTISRDNAKNTVYLQMNSLKPEDTAVYYCNAQRRGTYYWGQGTQVTVSS | high polyreactivity
QVQLVESGGGLVQAGGSLRLSCAASGRTFWYYAMGWYRQAPGKERELVAAITYRGGSTYYADSVKGRFTISRDNVKNTVYLQMNSLKPEDTAVYYCARRVDSYYGHTRYYYWGQGTQVTVSS | high polyreactivity
QVQLVESGGGLVQAGGSLRLSCAASGRTFWYYAMGWYRQAPGKERELVADITRRGGGTYYADSVKGRFTISRDNAKNTVYLQMNSLKPEDTAVYYCAVERWPRSYPPSYDYWGQGTQVTVSS | high polyreactivity
QVQLVESGGGLVQAGGSLRLSCAASGRTFWYYAMGWYRQAPGNERELVATISYRGGSTYYADSVKGRFTISRDNAKNTVYLQMNSLKPEDPAVYYSAAKQWWGGRPKVDYWGQGTQVTVSS | high polyreactivity
QVQLVESGGGLVQAGGSLRLSCAASGRTFWYYAMVWSRQAPGKERELVAGITFTGGRTYYADSVKGRFTISRDNSKNTVYLQMNSLKPEDTAVYYCAAAGLDVGRKDRDGYWGQGTQVTVSS | low polyreactivity

Sequence | polyreactivity (PSR sort gate)
QVQLVESGGGLVQAGGSLRLSCAASGRTFWYYPMGGYRQEPGKERELVAAITRGTSTYADSVKGRFTISRDNAKTTVYLQMNSLKPEDTAVDYCAADTWGTRNSRYDYWGQGTQVTVSS | high polyreactivity
QVQLVESGGGLVQAGGSLRLSCAASGRTFYANAMGWYRQAPGKERELVAAISSSGSRTYYADSVKGRFTISRDNAKNTVYLQMNSLKPEDTAVYYCNAAAPYLTRQHWARDYWGQGTQVTVSS | high polyreactivity
QVQLVESGGGLVQAGGSLRLSCAASGRTFYANDMGWYRQAPGKERELVARITSGGSTYYADSVKGRFTISRDNAKNTVYLQMNSLKPEDTAVYYCAAVTRRFSYRYNYWGQGTQVTVSS | high polyreactivity
QVQLVESGGGLVQAGGSLRLSCAASGRTFYAYAMGWSRQAPGKERELVAAISWRGGDTYYADSVKGRFTISRDNAKNTVYLQMNSLKPEDTAVYYCAKYLSRQSGDGEYDYWGQGTQVTVSS | low polyreactivity
QVQLVESGGGLVQAGGSLRLSCAASGRTFYAYAMGWYRQAPGKERELVAAISSGGSTYYADSVKGRFTISRDNAKNTVYLQMNSLKPEDTAVYYCNAGYYQWPFSGYDYWGQGTQVTVSS | low polyreactivity
QVQLVESGGGLVQAGGSLRLSCAASGRTFYAYAMGWYRQAPGKERELVSAISWRGGDTYYADSVKGRFTISRDYAKNTVYLQMHSLIPEDTAFYYCAADFTYTWDAAQGYDYWGQGPQVTVSS | low polyreactivity
QVQLVESGGGLVQAGGSLRLSCAASGRTFYDNAMGWYRQAPGKERELVAVISTSGARTYYADSVKGRFTISRDNAKNTVYLQMNSLKPEDTAVYYCAAGPALWQAYRMYYWGQGTQVTVSS | high polyreactivity
QVQLVESGGGLVQAGGSLRLSCAASGRTFYDYAKGWYRQAPGKERELVASITYYADSVKGRFTISRDNAKNTVYLQMNSLKPEDTSVYYCAKDLYSNDLYRRYDYWGQGTQVTVSS | low polyreactivity
QVQLVESGGGLVQAGGSLRLSCAASGRTFYDYAMGWYRQAPGKERELVAGIRWSGGSTYYADSVKGRFTISRDNAKNTVFLQMNSLKPEDTAVYYCAADWFAGVAADVEYDYWGQGTQVTVSS | low polyreactivity
QVQLVESGGGLVQAGGSLRLSCAASGRTFYEYAMGWYRQAPGKERELVAAITRSGGSTYYADSVKGRFTISRDNAKNTVYLQMNSLKPEDTAVYYCAADGIKGGVEYDYWGQGTQVTVSS | high polyreactivity
QVQLVESGGGLVQAGGSLRLSCAASGRTFYFYTMGWYRQAPGKERELVAAITLSGVSTYYADSVKGRFTISRDNAKITVYLQMNSLKPEDTAVYYCNAVYIRPGYRRYDYWGQGTQVTVSS | high polyreactivity
QVQLVESGGGLVQAGGSLRLSCAASGRTFYGNAMGWYRQAPGKERELVAAINYSGGRTFYADSVKGRFTISRDNAKNTVYLQMNSLKPEDTAVYYCAAQDTYYGLFSYWIPWSGYWGQGTQVTVSS | high polyreactivity
QVQLVESGGGLVQAGGSLRLSCAASGRTFYGNAMGWYRQAPGKERELVAAITTGGGNTYYADSVKGRFTISRDNAKNTVYLQMNSLKPEDTAVYYCAKCYRAYYWGFNYWGQGTQVTVSS | high polyreactivity
QVQLVESGGGLVQAGGSLRLSCAASGRTFYGYAMGWYIQAPGKERELVASISYSGGNTYYADSVKGRFTISRDNAKNTVYLQMNSLKPEDTAVYYCAAKARRPYSYHPYDYWGLGTQVTVSS | high polyreactivity
QVQLVESGGGLVQAGGSLRLSCAASGRTFYGYAMGWYRQAPGKERELVAAISSDTGGTDDTYYADSVKGRFTISRDNAKNTVYLQMNSLKPEDTAVYYCAAETEQGIIVTGLAYDYWGQGTQVTVSS | low polyreactivity
QVQLVESGGGLVQAGGSLRLSCAASGRTFYGYAMGWYRQAPGKERELVAAISSNNGRTYYADSVKGRFTISRDNAKNTVYLQMNSLKPEDTAVYYCAAEAVSILWRDYDYWGQGTQVTVSS | low polyreactivity
QVQLVESGGGLVQAGGSLRLSCAASGRTFYGYAMGWYRQAPGKERELVAAISVSGGSTYYADSVKGRFTISRDNAKNTVYLQMNSLKPEDTAVYYCATKGLFTNSPLYVSAYDYWGQGTQVTVSS | low polyreactivity
QVQLVESGGGLVQAGGSLRLSCAASGRTFYGYAMGWYRQAPGKERELVASISRDGSTNYADSVKGRFTISRDNAKNTVYLQMNSLKPEDTAVYYCAADWVYYRYWPYVGYDYWGQGTQVTVSS | low polyreactivity
QVQLVESGGGLVQAGGSLRLSCAASGRTFYGYAMGWYRQAPGKERELVATISGSGASTYYADSVKGRFTISRDNAKNTVYLQMNSLKPEVTAVYYFAARYVTNRHSRYYYWGQGTQVTVSS | high polyreactivity
QVQLVESGGGLVQAGGSLRLSCAASGRTFYGYGMGWYRQAAGKEREFVAAISYSGGSTYYADSVKGRFTISRDNAKNTVYLQMNSLKPEDTAVYYCAARNRGSGFYYWGQGTQVTVSS | high polyreactivity
